For this data set, the target named is T1, AmrZ (Pseudomonas aeruginosa PAO1) (UniProt G3XCY4).
T1 sequence: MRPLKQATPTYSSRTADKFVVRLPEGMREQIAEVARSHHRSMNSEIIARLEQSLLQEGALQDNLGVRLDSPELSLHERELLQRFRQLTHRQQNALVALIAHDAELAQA
In words: EMSA.

Turning to “GTTATCTGCTTTCGGCCAAGAGATTTGGCTCCTTGCATATTATAAGAACCCCAACACTTCCCGTCGTACCTTGAATGCCCCGCCTAGCGGAGAGGCATGAATACGCTCCGTTTTATTGATTTTCAAAGCCATGAGCACGGAGTCGATTTTATAATAATCAGGATTATCCGACGTGCGCTGA (double strand) [exsA promoter]”, the binding entry is given as “no binding”.
